Measured values published in EP2390325A1, “FLAVONOID-3-GLUCURONYLTRANSFERASE AND POLYNUCLEOTIDE ENCODING SAME” (Suntory Holdings Limited, priority 2009, dated 2010).

Tests used:
VvGT5 [1] = biological target: T1, VvGT5 (Vitis vinifera, UniProt C7G3B5); experiment: Glycosyl acceptor specificity of VvGT5, product amount by HPLC; format: biochemical; conditions: 100 µM glycosyl acceptor, 1 mM UDP-glucuronic acid, pH 9.5, 30°C, 15 minutes
T1 sequence (C7G3B5 1-459): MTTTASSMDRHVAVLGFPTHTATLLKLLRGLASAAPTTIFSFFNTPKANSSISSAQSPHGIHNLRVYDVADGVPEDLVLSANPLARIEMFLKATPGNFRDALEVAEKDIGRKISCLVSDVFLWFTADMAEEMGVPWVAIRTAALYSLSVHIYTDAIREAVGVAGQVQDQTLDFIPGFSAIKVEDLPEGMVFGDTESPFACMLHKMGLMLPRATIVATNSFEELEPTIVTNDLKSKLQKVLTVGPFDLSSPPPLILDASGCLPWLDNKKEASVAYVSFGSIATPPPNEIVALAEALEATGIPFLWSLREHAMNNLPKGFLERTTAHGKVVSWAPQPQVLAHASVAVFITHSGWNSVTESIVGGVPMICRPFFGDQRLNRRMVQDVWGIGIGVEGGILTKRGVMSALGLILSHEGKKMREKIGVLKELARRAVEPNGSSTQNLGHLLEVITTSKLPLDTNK
Procedure: Next, the glycosyl acceptor specificity of this enzyme was examined. […] The reaction was started by adding the glycosyl acceptor. The reaction was stopped by adding an equal volume of 40% acetonitrile solution containing 0.1% TFA. After the reaction was stopped, the solution was centrifuged (15000 rpm, 2 mins., 4°C) and 100 µl of the resulting supernatant was provided for the HPLC analysis. The amounts of the products produced were compared for each glycosyl acceptor.
Anthocyanins were analyzed under the conditions below using the HPLC system described above. Conditions for the HPLC analysis of anthocyanins were as follows. Asahipak ODP-50 4E (4.6 x 250 mm, Showa Denko K.K.) as a column was used at room temperature. Moving phase A (0.5% TFA/H2O) and moving phase B (0.5% TFA/50% GH3CN) were used. Conditions for elution were as follows: Equilibration was performed with B30% for 3 minutes, followed by linear density gradients (B30%→B65%) for 15 minutes and (B65%→B100%) for further 1 minute, which was maintained for 5 minutes at B100%. Thereafter, the condition was again reverted to B30% to equilibrate for 10 minutes. The flow rate was 0.7 ml/min. Detection was performed at 520 nm. Under the conditions, standard pelargonidin, cyanidin and delphinidin were sequentially eluted in this order at retention times of approximately […], respectively.

VvGT5 [2] = biological target: T1, VvGT5; experiment: Glycosyl donor specificity of VvGT5, product amount by HPLC; format: biochemical; conditions: 100 µM quercetin, 1 mM glycosyl donor, pH 9.5, 30°C, 15 minutes
Procedure: Next, the glycosyl donor specificity of this enzyme was examined. […] The reaction was started by adding the glycosyl acceptor. The reaction was stopped by adding an equal volume of 40% acetonitrile solution containing 0.1% TFA. After the reaction was stopped, the solution was centrifuged (15000 rpm, 2 mins., 4°C) and 100 µl of the resulting supernatant was provided for the HPLC analysis. The amounts of the products produced in the respective glycosyl donors were compared.

[3] = substrate: O=C(O)[C@H]1O[C@H](OP(=O)(O)OP(=O)(O)OC[C@H]2O[C@@H](n3ccc(=O)[nH]c3=O)[C@H](O)[C@@H]2O)[C@H](O)[C@@H](O)[C@@H]1O; experiment: purified protein, by the assay type; conditions: other: glycosyl donor; purified His-tagged VvGT5; pH 9.5; 30.0 °C
[4] = substrate: COc1cc(-c2oc3cc(O)cc(O)c3c(=O)c2O)ccc1O; experiment: Kinetic analysis of VvGT5 (Km, kcat); format: biochemical, Vitis vinifera; conditions: other: glycosyl acceptor substrate; purified His-tagged VvGT5; pH 9.5; 30.0 °C
[5] = substrate: O=c1c(O)c(-c2ccc(O)cc2)oc2cc(O)cc(O)c12; experiment: Kinetic analysis of VvGT5 (Km, kcat); format: biochemical, Vitis vinifera; conditions: other: glycosyl acceptor substrate; purified His-tagged VvGT5; pH 9.5; 30.0 °C
[6] = substrate: O=c1c(O)c(-c2ccc(O)c(O)c2)oc2cc(O)cc(O)c12; experiment: Kinetic analysis of VvGT5 (Km, kcat); format: biochemical, Vitis vinifera; conditions: other: glycosyl acceptor substrate; purified His-tagged VvGT5; pH 9.5; 30.0 °C

## O=c1c(O)c(-c2ccc(O)c(O)c2)oc2cc(O)cc(O)c12 [quercetin]
VvGT5 [1]
  activity of VvGT5 on glycosyl acceptor: highest activity

## O=C(O)[C@H]1O[C@H](OP(=O)(O)OP(=O)(O)OC[C@H]2O[C@@H](n3ccc(=O)[nH]c3=O)[C@H](O)[C@@H]2O)[C@H](O)[C@@H](O)[C@@H]1O [UDP-glucuronic acid]
VvGT5 [2]
  product formation with glycosyl donor: the product was obtained only when UDP-glucuronic acid was used as the substrate

B1: VvGT5 (Vitis vinifera) (protein)
chain: MTTTASSMDRHVAVLGFPTHTATLLKLLRGLASAAPTTIFSFFNTPKANSSISSAQSPHGIHNLRVYDVADGVPEDLVLSANPLARIEMFLKATPGNFRDALEVAEKDIGRKISCLVSDVFLWFTADMAEEMGVPWVAIRTAALYSLSVHIYTDAIREAVGVAGQVQDQTLDFIPGFSAIKVEDLPEGMVFGDTESPFACMLHKMGLMLPRATIVATNSFEELEPTIVTNDLKSKLQKVLTVGPFDLSSPPPLILDASGCLPWLDNKKEASVAYVSFGSIATPPPNEIVALAEALEATGIPFLWSLREHAMNNLPKGFLERTTAHGKVVSWAPQPQVLAHASVAVFITHSGWNSVTESIVGGVPMICRPFFGDQRLNRRMVQDVWGIGIGVEGGILTKRGVMSALGLILSHEGKKMREKIGVLKELARRAVEPNGSSTQNLGHLLEVITTSKLPLDTNK
[3]
  Km: 17.7 µM
[4]
  Km: 7.92 ± 0.32 µM
  kcat: 0.413 ± 0.03 s⁻¹
[5]
  Km: 10.8 ± 0.4 µM
  kcat: 6.05 ± 0.05 s⁻¹
[6]
  Km: 5.60 ± 1.76 µM
  kcat: 7.16 ± 0.37 s⁻¹
